{"source": "paper PMC5714172", "biological_target": "MBP-Hsmar1 transposase (human)", "assay": "SEC; Superdex 200 10/300 GL, GF buffer (25 mM HEPES pH 7.5, 200 mM NaCl, 2 mM DTT, 5 mM EDTA, 0.1% Triton X-100 reduced); ^MBPHsmar1 after increasing Factor Xa proteolysis (1 ug protease per 50 ug fusion protein)", "data": [{"substance": "MBP-Hsmar1 transposase (enzyme)", "values": [{"measurement": "stoichiometry N", "value": 2}]}]}
